Reference: the supplement of paper PMC10126150
± gives the standard deviation of the averaged measurements.
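Also: ATP exposure 15 min at 22 °C before imaging.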

The sequences below were run on ATP (assay: switch fluorescence ratio, 500 uM ATP over buffer (Cy3 cluster intensity, sum of 5 cycles each) (fold (ratio)); higher = stronger signal-on switching upon ATP binding; sequences stand for … in TCGTCGGCAGCGTCAGATGTGTATAAGAGACAGTTTTTTTTTTTTTTTTTTTTTTTTT…TC). Details: aptamer strand: ATP DNA aptamer (quencher-CACCTGGGGGAGTATTGCGGAGGAAGG + anchor), 100 nM annealed; ATP concentration: 500 uM.
Summary of the method: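 Clusters carrying Cy3-labelled switching strands on a modified Illumina MiSeq flow-cell were annealed to 100 nM quencher-labelled ATP aptamer and imaged in selection buffer. They were imaged again after 15 min with 500 uM ATP at 22 °C, over five buffer/ATP cycles with NaOH stripping and re-annealing in between. For each cluster, the fluorescence ratio is the summed Cy3 intensity of the target cycles divided by that of the buffer cycles, averaged per switch-domain sequence. Clusters outside 100-1000 RFU were left out.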
ATTGAGCGGG gave a switch fluorescence ratio of 1 ± 0.034.
CAAGGGGGAT gave a switch fluorescence ratio of 1.01 ± 0.013.
For TGAGCGGTTG, the switch fluorescence ratio was 1 ± 0.018.
TAGAGGGCTG was tested, and the switch fluorescence ratio was 1.01 ± 0.016.
AACATACAGG showed a switch fluorescence ratio of 1.28 ± 0.019.
AGGGGCTTTG was tested, and the switch fluorescence ratio was 1.03 ± 0.032.
In the case of ACTGATTGGC, the switch fluorescence ratio is reported as 1.18 ± 0.18.
For AGTTCCCCTT, the switch fluorescence ratio was 1.052 ± 0.0024.
With AACTTGTCAT the switch fluorescence ratio was 1 ± 0.0063.
With TTTAATTTA the switch fluorescence ratio was 1.01 ± 0.012.
With CGAGCCTTGT the switch fluorescence ratio was 1.01 ± 0.04.
TATTGTTGGG was tested, and the switch fluorescence ratio was 0.976 ± 0.03.
TCTAGGGCGC gave a switch fluorescence ratio of 1.01 ± 0.053.
With GCGGGGGGGA the switch fluorescence ratio was 1.01 ± 0.038.
In the case of CAGTCGGAGA, the switch fluorescence ratio is reported as 1.02 ± 0.037.
In the case of TGTACCTTTA, the switch fluorescence ratio is reported as 1.04 ± 0.038.
AGACGTCGGG was tested, and the switch fluorescence ratio was 1.016 ± 0.0031.
With GCGTTTTTTT the switch fluorescence ratio was 0.98972 ± 0.0007.
Sequence GTTTTTTCGG has a switch fluorescence ratio of 0.993 ± 0.023.
AGCGTTTAGA showed a switch fluorescence ratio of 0.989 ± 0.011.
TGTTGGTTTT showed a switch fluorescence ratio of 1.02 ± 0.027.
In the case of ATGTAGGTGA, the switch fluorescence ratio is reported as 1.03 ± 0.017.
ACGGAGTAAA was tested, and the switch fluorescence ratio was 0.99939 ± 0.00086.
Sequence TGGGGGGTCC has a switch fluorescence ratio of 1.01 ± 0.039.
GCGGCACAAT was tested, and the switch fluorescence ratio was 1.05 ± 0.013.
Sequence CATACTTTTT has a switch fluorescence ratio of 1.02 ± 0.018.
CCCGGGTAAG was tested, and the switch fluorescence ratio was 1.03 ± 0.024.
Work on AAATAGTGTG yielded a switch fluorescence ratio of 1 ± 0.033.
TTAAATTGGG was tested, and the switch fluorescence ratio was 1.01 ± 0.018.
Work on TTTTTTAGGT yielded a switch fluorescence ratio of 0.99 ± 0.03.
CGGGGGCCGA gave a switch fluorescence ratio of 1 ± 0.019.
TGCCTTATTA showed a switch fluorescence ratio of 1.035 ± 0.0067.
With ATGTATAGGA the switch fluorescence ratio was 0.992 ± 0.029.
For GTGAGGAGGG, the switch fluorescence ratio was 0.959 ± 0.07.
Sequence CGGGTAATCG has a switch fluorescence ratio of 1.01 ± 0.0082.
In the case of TATCGGCTGG, the switch fluorescence ratio is reported as 1.01 ± 0.025.
TGGTTTGGCG showed a switch fluorescence ratio of 1.02 ± 0.18.
In the case of TACAGGTTTT, the switch fluorescence ratio is reported as 0.972 ± 0.073.
Sequence ATGGCCAGCA has a switch fluorescence ratio of 1.01 ± 0.03.
In the case of TCGAGGGGAC, the switch fluorescence ratio is reported as 1.67 ± 1.4.
Work on TCACCAGATT yielded a switch fluorescence ratio of 1.017 ± 0.008.
Work on ACTGTTATGT yielded a switch fluorescence ratio of 1.07 ± 0.022.
With ACAAAAGGGG the switch fluorescence ratio was 1.16 ± 0.22.
For AAAAGGTTAA, the switch fluorescence ratio was 0.968 ± 0.019.
For CGGGTGGGGA, the switch fluorescence ratio was 1.01 ± 0.04.
AAGGAAGACT gave a switch fluorescence ratio of 0.974 ± 0.021.
Sequence AGGCGACGTT has a switch fluorescence ratio of 0.9931 ± 0.0069.
GATCGAGACC gave a switch fluorescence ratio of 1.024 ± 0.0044.
CTGCACCATG was tested, and the switch fluorescence ratio was 1.01 ± 0.028.
For GTACTTCATA, the switch fluorescence ratio was 1.03 ± 0.013.
With CTTCCGTTTT the switch fluorescence ratio was 1.28 ± 0.042.
ACCTTTTAGT showed a switch fluorescence ratio of 1.04 ± 0.018.
With GTTAATGGGT the switch fluorescence ratio was 0.98 ± 0.047.
AGAGGGATAC was tested, and the switch fluorescence ratio was 1.07 ± 0.035.
TTTGGGAGGG gave a switch fluorescence ratio of 0.969 ± 0.02.
GATGTTCAGG showed a switch fluorescence ratio of 0.9875 ± 0.0011.
For GCGGGGGTTT, the switch fluorescence ratio was 1.15 ± 0.28.
Sequence AATCCTATCA has a switch fluorescence ratio of 1.02 ± 0.014.
For GGAGATTTTG, the switch fluorescence ratio was 1 ± 0.042.
AAGGGGAACT was tested, and the switch fluorescence ratio was 0.9907 ± 0.0043.
Work on AGGGCAGCGG yielded a switch fluorescence ratio of 1.03 ± 0.033.
In the case of GCAGGGACAA, the switch fluorescence ratio is reported as 1.01 ± 0.018.
With TTGTTTTTAT the switch fluorescence ratio was 0.992 ± 0.03.
GCTGAAGTTC gave a switch fluorescence ratio of 0.993 ± 0.025.
CATAAAACGG showed a switch fluorescence ratio of 1.0263 ± 8.3e-05.
For TTAGGGCTTA, the switch fluorescence ratio was 0.995 ± 0.013.
For TGAGGATTTG, the switch fluorescence ratio was 1.02 ± 0.011.
GGGGAGGTCG gave a switch fluorescence ratio of 1.03 ± 0.02.
In the case of TCATTTGGGA, the switch fluorescence ratio is reported as 1.008 ± 0.0033.
Work on CGGGTTCAGT yielded a switch fluorescence ratio of 0.974 ± 0.014.
With ACGTAGACGT the switch fluorescence ratio was 1.02 ± 0.018.
GCGGATGCTT showed a switch fluorescence ratio of 0.9718 ± 0.0056.
In the case of GGTTTGTGGG, the switch fluorescence ratio is reported as 0.968 ± 0.013.
For TTACTCGGTC, the switch fluorescence ratio was 0.99 ± 0.052.
In the case of AGGGTGGCGT, the switch fluorescence ratio is reported as 0.9459 ± 0.0075.
CTTATGGGGG showed a switch fluorescence ratio of 1.03 ± 0.046.
With AGTGGTGAGT the switch fluorescence ratio was 0.977 ± 0.025.
In the case of AGTTTCGGTA, the switch fluorescence ratio is reported as 0.977 ± 0.018.
AAGGTATCTG showed a switch fluorescence ratio of 1.03 ± 0.03.
CCGTCTGTTG gave a switch fluorescence ratio of 1.03 ± 0.029.
GTGGTCGGGC showed a switch fluorescence ratio of 1 ± 0.022.
In the case of ACGGGGAAGG, the switch fluorescence ratio is reported as 1.03 ± 0.035.
TAAGTGCTGG was tested, and the switch fluorescence ratio was 1.01 ± 0.016.
Work on TAGGTTATTG yielded a switch fluorescence ratio of 0.995 ± 0.024.
Work on CTCAACGATT yielded a switch fluorescence ratio of 1.03 ± 0.048.
